Laboratory results: patent US20040146507A1 (Genentech, published 2004)

How the values were obtained:
human CD11a [1] = target: T1, human CD11a (human, UniProt P20701 26-1170); assay: cell-based or functional assay
rhesus CD11a = target: T2, rhesus CD11a (rhesus, UniProt H9Z8N3 26-1169); assay: binding to rhesus CD11a compared with human CD11a
T2 construct: whole, on cells; On rhesus peripheral blood lymphocytes or leukocytes; also called rhCD11a
T2 sequence: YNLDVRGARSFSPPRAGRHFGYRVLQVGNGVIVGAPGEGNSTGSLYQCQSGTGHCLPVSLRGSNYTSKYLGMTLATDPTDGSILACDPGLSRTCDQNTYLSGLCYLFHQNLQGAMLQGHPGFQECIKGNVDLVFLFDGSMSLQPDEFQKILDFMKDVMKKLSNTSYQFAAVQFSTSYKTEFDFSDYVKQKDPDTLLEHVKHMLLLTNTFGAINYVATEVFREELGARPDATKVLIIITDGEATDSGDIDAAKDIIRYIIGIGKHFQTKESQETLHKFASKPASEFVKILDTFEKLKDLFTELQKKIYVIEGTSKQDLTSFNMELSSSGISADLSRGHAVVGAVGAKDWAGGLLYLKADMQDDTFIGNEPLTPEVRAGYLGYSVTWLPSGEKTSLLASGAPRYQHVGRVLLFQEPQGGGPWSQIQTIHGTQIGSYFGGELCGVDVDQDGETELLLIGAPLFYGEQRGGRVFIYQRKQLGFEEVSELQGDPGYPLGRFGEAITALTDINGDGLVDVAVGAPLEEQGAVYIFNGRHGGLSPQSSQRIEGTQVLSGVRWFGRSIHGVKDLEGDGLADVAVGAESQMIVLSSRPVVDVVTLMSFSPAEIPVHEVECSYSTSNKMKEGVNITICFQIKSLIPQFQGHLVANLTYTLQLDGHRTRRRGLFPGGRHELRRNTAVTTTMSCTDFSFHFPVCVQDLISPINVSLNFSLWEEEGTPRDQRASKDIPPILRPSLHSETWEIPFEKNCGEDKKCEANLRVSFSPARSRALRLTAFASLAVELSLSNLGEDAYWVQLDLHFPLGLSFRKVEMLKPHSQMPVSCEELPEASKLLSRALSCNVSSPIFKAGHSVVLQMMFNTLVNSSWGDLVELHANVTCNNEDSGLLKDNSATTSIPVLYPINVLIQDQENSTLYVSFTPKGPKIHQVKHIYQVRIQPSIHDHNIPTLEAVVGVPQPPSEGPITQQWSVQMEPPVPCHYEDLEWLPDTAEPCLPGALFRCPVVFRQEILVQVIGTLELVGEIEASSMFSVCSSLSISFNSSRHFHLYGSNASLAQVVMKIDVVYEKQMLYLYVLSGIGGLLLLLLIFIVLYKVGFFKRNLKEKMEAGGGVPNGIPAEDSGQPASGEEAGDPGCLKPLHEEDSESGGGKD

human CD11a [2] = target: T1, human CD11a; assay: saturation binding, human lymphocytes, donor 1; Kd(app)
Method: (§1) Radiolabeled antibodies were prepared using Iodo-Gen (Pierce, Rockford, Ill.) according to the manufacturer's instructions. 50 μg of antibody and 1 mCi¹²⁵I (DuPont, Wilmington, Del.) were added to each tube and incubated for 15 min at 25° C. Radiolabeled proteins were purified from the remaining free ¹²⁵I using PD-10 columns (Pharmacia, Uppsala, Sweden) equilibrated in Hank's Balanced Salt Solution (HBSS, Life Technologies, Grand Island, N.Y.) containing 0.2% gelatin.
(§2) Antibody affinities were determined by saturation binding using either peripheral blood mononuclear cells (murine MHM24 and HuIgG1) or rhesus leukocytes (MHM23, RhIgG1). In each assay, a radiolabeled antibody was serially diluted in HBSS-0.2% gelatin in quadruplicate. Nonspecific binding was determined by the addition of 500 nM final concentration of homologous unlabeled antibody in duplicate through the serial dilution. Human lymphocytes or rhesus leukocytes were added to the plates in a volume of 170 μl per well. Plates were incubated for 2 hr at room temperature on an orbital plate shaker. After incubation, cells were harvested using a SKATRON™ cell harvester (Lier, Norway) and washed 10 times with PBS containing 0.25% gelatin and 0.1% sodium azide. Samples were then counted for 1 min in an LBK Wallac GammaMaster gamma counter (Gaithersburg, Md.). […]

human CD11a [3] = target: T1, human CD11a; assay: saturation binding, human lymphocytes, donor 2; Kd(app)
Method: as §1, §2

human CD11a [4] = target: T1, human CD11a; assay: saturation binding, 125I-antibody, human lymphocytes; Kd(app)
Method: as §1, §2

IC50, blocking of cell adhesion, Jurkat: HuK (human CD11a [1]): 90 pM
fold reduction in binding against human CD11a (rhesus CD11a): ~1000 fold
Kd (human CD11a [2]): 160 pM
Kd (human CD11a [3]): 130 pM
Kd (human CD11a [4]): 150 pM
B1: murine MHM24 (antibody, V domains shown)
VH: EVQLQQPGAELMRPGASVKLSCKASGYSFTGHWMNWVRQRPGQGLEWIGMIHPSDSETRLNQKFKDKATLTVDKSSSSAYMQLSSPTSEDSAVYYCARGIYFYGTTYFDYWGQGTTLTVSS
VL: DVQITQSPSYLAASPGETISINCRASKTISKYLAWYQEKPGKTNKLLIYSGSTLQSGIPSRFSGSGSGTDFTLTISSLEPEDFAMYYCQQHNEYPLTFGTGTKLELKR
notes: Murine anti-human CD11a monoclonal antibody; also called muMHM24; murMHM24
